Test results: publication PMC3578875

Target: human mu opioid receptor, N-terminally his-tagged (human) (UniProt P35372)
Assay: SPR; Biacore-X, 25°C; OPRM captured on a Ni-NTA sensor chip (about 4000 RU), second cell as reference; running Buffer B (5 mM NaHPO4, 10% glycerol, 0.07% Fos-12, pH 7.5); EM-1 injected at 10, 30, 50, 60, 80, 100 nM, 5 µl/min, no regeneration; 1:1 interaction model

UniProt P35372, sequence (P35372 whole entry): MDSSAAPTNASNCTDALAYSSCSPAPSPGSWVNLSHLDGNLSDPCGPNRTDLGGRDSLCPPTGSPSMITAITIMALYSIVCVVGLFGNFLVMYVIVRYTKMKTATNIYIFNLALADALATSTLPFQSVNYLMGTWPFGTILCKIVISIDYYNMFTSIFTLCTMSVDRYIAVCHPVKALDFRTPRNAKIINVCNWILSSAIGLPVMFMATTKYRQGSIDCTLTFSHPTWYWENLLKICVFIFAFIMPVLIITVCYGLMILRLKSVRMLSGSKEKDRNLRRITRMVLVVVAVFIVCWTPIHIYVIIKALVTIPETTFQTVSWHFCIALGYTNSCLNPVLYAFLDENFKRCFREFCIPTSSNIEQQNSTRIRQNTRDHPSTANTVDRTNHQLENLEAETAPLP

endomorphin-1 (peptide)
Kd: 60.9 nM
